Key:
Assay in all cases: holdup assay
Design in all cases: key: below the threshold = too weak to quantify, mostly under pKd 3.1 to 4
Settings in all cases: plain residues with an end cap or a label only (N-terminal biotin on a linker: ttds)
[1] = molecular target: T1, SHROOM4, Q9ULL8
T1 sequence (Q9ULL8 5-102, limits assumed, looked up): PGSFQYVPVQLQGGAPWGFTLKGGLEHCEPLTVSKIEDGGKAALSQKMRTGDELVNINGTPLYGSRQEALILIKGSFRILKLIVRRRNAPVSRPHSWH

[2] = molecular target: IL16_2, Q14005
[3] = molecular target: LIMK1, P53667
Chain of LIMK1, P53667 (P53667 155-268): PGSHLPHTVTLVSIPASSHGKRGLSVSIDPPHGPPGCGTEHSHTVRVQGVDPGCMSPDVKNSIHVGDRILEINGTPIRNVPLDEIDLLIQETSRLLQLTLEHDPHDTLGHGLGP

[4] = molecular target: PARD3B_3, Q8TEW8
Chain of PARD3B_3, Q8TEW8 (Q8TEW8 490-594): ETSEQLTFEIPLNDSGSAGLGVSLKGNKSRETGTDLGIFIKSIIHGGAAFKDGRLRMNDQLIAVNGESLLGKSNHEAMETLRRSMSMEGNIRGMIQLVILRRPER

[5] = molecular target: T2, PDZD2_4, O15018
T2 sequence (O15018 723-823, limits assumed, looked up): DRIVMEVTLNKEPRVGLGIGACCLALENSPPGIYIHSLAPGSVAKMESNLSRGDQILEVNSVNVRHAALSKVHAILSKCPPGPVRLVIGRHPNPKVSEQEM

[6] = molecular target: RIMS2, Q9UQ26
Chain of RIMS2, Q9UQ26 (Q9UQ26 637-758): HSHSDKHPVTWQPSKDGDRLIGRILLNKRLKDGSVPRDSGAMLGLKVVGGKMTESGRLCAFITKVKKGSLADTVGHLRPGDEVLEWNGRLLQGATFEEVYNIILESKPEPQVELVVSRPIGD

[7] = molecular target: T3, PDZRN3_2, Q9UPQ7
T3 sequence (Q9UPQ7 414-513, limits assumed, looked up): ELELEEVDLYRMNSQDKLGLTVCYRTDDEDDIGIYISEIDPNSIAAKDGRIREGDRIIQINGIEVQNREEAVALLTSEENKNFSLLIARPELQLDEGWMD

[8] = molecular target: T4, PARD6B, Q9BYG5
T4 sequence (Q9BYG5 152-260, limits assumed, looked up): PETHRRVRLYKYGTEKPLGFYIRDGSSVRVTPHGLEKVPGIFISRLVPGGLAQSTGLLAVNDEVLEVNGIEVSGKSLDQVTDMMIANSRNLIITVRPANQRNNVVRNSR

[9] = molecular target: T5, INTU, Q9ULD6
T5 sequence (Q9ULD6 180-273, limits assumed, looked up): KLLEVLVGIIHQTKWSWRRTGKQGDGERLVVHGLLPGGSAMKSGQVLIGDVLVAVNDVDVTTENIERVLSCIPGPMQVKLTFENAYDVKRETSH

[10] = molecular target: T6, MAGI2_1, Q86UL8
T6 sequence (Q86UL8 12-111, limits assumed, looked up): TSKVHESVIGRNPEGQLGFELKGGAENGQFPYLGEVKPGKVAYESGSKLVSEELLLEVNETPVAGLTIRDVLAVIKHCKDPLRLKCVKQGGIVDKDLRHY

[11] = molecular target: T7, USH1C_3, Q9Y6N9
T7 sequence (Q9Y6N9 447-547, limits assumed, looked up): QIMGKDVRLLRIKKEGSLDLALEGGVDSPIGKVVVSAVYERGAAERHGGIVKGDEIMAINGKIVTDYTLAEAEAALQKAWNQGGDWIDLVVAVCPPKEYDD

[12] = molecular target: NHERF2_1, Q15599
Chain of NHERF2_1, Q15599 (Q15599 9-91): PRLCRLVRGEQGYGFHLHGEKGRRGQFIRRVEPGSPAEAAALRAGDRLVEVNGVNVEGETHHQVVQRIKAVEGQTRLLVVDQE

[13] = molecular target: T8, SHANK3, Q9BYB0
T8 sequence (Q9BYB0 641-750, limits assumed, looked up): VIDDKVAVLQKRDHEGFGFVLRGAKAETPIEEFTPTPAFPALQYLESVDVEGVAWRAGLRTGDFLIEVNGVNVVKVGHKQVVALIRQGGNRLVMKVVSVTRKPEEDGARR

[14] = molecular target: T9, PDZD4, Q76G19
T9 sequence (Q76G19 125-224, limits assumed, looked up): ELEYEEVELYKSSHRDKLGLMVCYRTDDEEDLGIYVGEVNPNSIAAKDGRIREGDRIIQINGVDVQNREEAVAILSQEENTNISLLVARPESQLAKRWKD

[15] = molecular target: CNKSR3, Q6P9H4
Chain of CNKSR3, Q6P9H4 (Q6P9H4 203-303): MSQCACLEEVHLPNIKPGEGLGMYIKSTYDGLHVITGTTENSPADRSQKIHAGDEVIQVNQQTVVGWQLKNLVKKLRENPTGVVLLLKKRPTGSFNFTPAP

[16] = molecular target: T10, TJP3_1, O95049
T10 sequence (O95049 6-103, limits assumed, looked up): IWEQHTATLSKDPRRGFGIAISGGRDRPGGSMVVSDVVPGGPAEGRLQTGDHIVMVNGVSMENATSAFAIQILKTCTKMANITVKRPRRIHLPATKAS

[17] = molecular target: T11, PDZD11, Q5EBL8
T11 sequence (Q5EBL8 42-139, limits assumed, looked up): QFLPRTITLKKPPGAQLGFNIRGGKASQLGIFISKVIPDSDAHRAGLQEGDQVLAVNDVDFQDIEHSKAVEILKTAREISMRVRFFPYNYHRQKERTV

[18] = molecular target: MAGI3_5, Q5TCQ9
Chain of MAGI3_5, Q5TCQ9 (Q5TCQ9 847-941): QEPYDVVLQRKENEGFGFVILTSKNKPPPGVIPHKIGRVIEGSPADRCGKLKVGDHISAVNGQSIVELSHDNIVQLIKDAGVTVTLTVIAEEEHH

[19] = molecular target: PREX1_1, Q8TCU6
Chain of PREX1_1, Q8TCU6 (Q8TCU6 608-718): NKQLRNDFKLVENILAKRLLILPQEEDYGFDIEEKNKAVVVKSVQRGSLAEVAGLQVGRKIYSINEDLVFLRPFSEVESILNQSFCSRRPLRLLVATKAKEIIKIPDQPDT

[20] = molecular target: T12, NHERF1_2, O14745
T12 sequence (O14745 149-244, limits assumed, looked up): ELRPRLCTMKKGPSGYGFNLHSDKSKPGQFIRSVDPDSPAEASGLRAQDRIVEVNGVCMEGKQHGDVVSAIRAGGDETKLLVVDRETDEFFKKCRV

[21] = molecular target: T13, PTPN4, P29074
T13 sequence (P29074 512-599, limits assumed, looked up): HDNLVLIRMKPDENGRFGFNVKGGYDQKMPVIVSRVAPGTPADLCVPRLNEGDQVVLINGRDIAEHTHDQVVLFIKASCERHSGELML

[22] = molecular target: T14, PDZD7_1, Q9H5P4
T14 sequence (Q9H5P4 81-178, limits assumed, looked up): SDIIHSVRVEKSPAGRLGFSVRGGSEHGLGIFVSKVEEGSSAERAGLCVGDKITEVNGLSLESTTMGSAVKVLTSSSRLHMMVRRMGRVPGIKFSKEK

[23] = molecular target: MAGI1_4, Q96QZ7
Chain of MAGI1_4, Q96QZ7 (Q96QZ7 other isoform, or with tags, fused parts or gaps): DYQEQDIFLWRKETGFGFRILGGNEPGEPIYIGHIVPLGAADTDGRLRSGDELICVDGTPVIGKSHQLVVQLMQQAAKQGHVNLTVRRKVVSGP

Chain of IL16_2, Q14005 (Q14005 350-450): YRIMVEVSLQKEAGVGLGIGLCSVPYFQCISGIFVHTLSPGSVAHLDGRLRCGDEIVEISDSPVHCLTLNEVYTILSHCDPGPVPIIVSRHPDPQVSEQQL

Row | Binder | pKd [1] | pKd [2] | pKd [3] | pKd [4] | pKd [5] | pKd [6] | pKd [7] | pKd [8] | pKd [10] | pKd [12] | pKd [13] | pKd [14] | pKd [15] | pKd [16] | pKd [17] | pKd [18] | pKd [19] | pKd [20] | pKd [21] | pKd [22] | further results
1 | SSRTRRETQL [HPV16-E6, P03126] | below the threshold | below the threshold | below the threshold | below the threshold | below the threshold | below the threshold | below the threshold | below the threshold | below the threshold | below the threshold | below the threshold | below the threshold | below the threshold | below the threshold | below the threshold | 3.96 | below the threshold | 3.89 | 4.61 | below the threshold | pKd [9]: below the threshold; pKd [11]: below the threshold; pKd [23]: below the threshold
2 | RSLEEEESQL [GRASP, Q7Z6J2] | below the threshold | below the threshold | 4.27 | below the threshold | below the threshold | below the threshold | below the threshold | below the threshold | below the threshold | below the threshold | 5.24 | below the threshold | 4.6 | below the threshold | below the threshold | below the threshold | 4.08 | below the threshold | below the threshold | below the threshold | pKd [11]: below the threshold; pKd [23]: below the threshold
3 | SRPQRTQTQV [HPV67-E6, A4U7F2] | below the threshold | 4.25 | below the threshold | below the threshold | below the threshold | below the threshold | below the threshold | below the threshold | below the threshold | below the threshold | below the threshold | below the threshold | below the threshold | below the threshold | below the threshold | below the threshold | below the threshold | below the threshold | below the threshold | below the threshold | pKd [9]: below the threshold; pKd [23]: below the threshold
4 | SVWLRKETRV [CYSLTR2, Q9NS75] | below the threshold | below the threshold | below the threshold | below the threshold | 4.48 | below the threshold | below the threshold | below the threshold | below the threshold | below the threshold | below the threshold | below the threshold | below the threshold | below the threshold | below the threshold | below the threshold | below the threshold | below the threshold | 4.52 | below the threshold | pKd [9]: below the threshold; pKd [11]: below the threshold; pKd [23]: below the threshold
5 | PKTPPTDTSV [KIR3DL3, Q8N743] | below the threshold | below the threshold | below the threshold | below the threshold | below the threshold | below the threshold | below the threshold | below the threshold | below the threshold | below the threshold | below the threshold | 4.14 | below the threshold | below the threshold | 4.3 | below the threshold | below the threshold | below the threshold | below the threshold | below the threshold | pKd [9]: below the threshold; pKd [11]: below the threshold; pKd [23]: below the threshold
6 | QSARYRDTEL [TJP2, Q9UDY2] | below the threshold | below the threshold | below the threshold | below the threshold | below the threshold | below the threshold | below the threshold | below the threshold | below the threshold | below the threshold | below the threshold | below the threshold | below the threshold | below the threshold | below the threshold | below the threshold | below the threshold | below the threshold | 4.48 | below the threshold | pKd [9]: below the threshold; pKd [11]: below the threshold; pKd [23]: below the threshold

From PMC9482650, “Quantitative fragmentomics allow affinity mapping of interactomes” (Nature Communications, 2022)
